Reference: patent US20220289830A1 (STAIDSON BEIJING BIOPHARMACEUTICALS, published 2022)
Changes are numbered by the printed parent chain.

B1: 7C1 (antibody, V domains shown)
VH: EVQLLESGGGLVQPGGSLRLSCTASGFTFSDNHMSWVRQAPGKGLDWVSGISESGGSTNYADSVKGRFSTSRDNSKSTLYLDMNSLRAEDTAIYYCAKGRFSTSSSHFYRAVYGMDVWGQGTAVTVSS
VL: DIQLTQSPSSLSASVGDRVTITCRASQGISSYLAWYQQKPGKAPKLLIYAASTLQSGVPSRFSGSGSGTDFTLTISSLQPEDFATYYCQQLSSYPLSFGGGTKVEIK
notes: also called optimized anti-PcrV mAb clone 7C1
B2: 13-42 mAb (antibody, V domains shown)
VH: B1 VH with N32Y, H33P, Y60D, S102C, S104N, H107C, Y109F
VL: B1 VL
B3: 2B1 (antibody, V domains shown)
VH: B1 VH with D31S, N32Y, H33P, T103G, S104E, S106H, Y109F
VL: B1 VL
notes: also called optimized anti-PcrV mAb clone 2B1
B4: 3A11 (antibody, V domains shown)
VH: B1 VH with D31S, N32Y, T103Q, Y109F
VL: B1 VL with S97T
notes: also called optimized anti-PcrV mAb clone 3A11
B5: 6A10 (antibody, V domains shown)
VH: B1 VH with Y109F
VL: B1 VL
notes: also called optimized anti-PcrV mAb clone 6A10
B6: 5B3 (antibody, V domains shown)
VH: B1 VH with N32Y, H33P, Y60D, T103Q, S104D, S106Y, Y109F
VL: B1 VL
notes: also called optimized anti-PcrV mAb clone 5B3
B7: 7B2 (antibody, V domains shown)
VH: B1 VH with N32Y, H33P, S104D, Y109F
VL: B1 VL
notes: also called optimized anti-PcrV mAb clone 7B2
B8: 3H10 (antibody, V domains shown)
VH: B1 VH with N32Y, H33P, Y60D, T103D, S104Y, S106Q, Y109F
VL: B1 VL with S92N, S97T
notes: also called optimized anti-PcrV mAb clone 3H10
B9: 4A10 (antibody, V domains shown)
VH: B1 VH with D31S, N32Y, H33P, T103D, S104A, S106E, Y109F
VL: B1 VL with A43T, S97T
notes: also called optimized anti-PcrV mAb clone 4A10
B10: 3G3 (antibody, V domains shown)
VH: B1 VH with N32Y, H33P, N59Y, Y60D, T103A, S105A, S106G, Y109F
VL: B1 VL with S30R
notes: also called optimized anti-PcrV mAb clone 3G3
B11: 3B12 (antibody, V domains shown)
VH: B1 VH with D31S, T103D, S104E, S105Y, S106G, Y109F
VL: B1 VL with S97T
notes: also called optimized anti-PcrV mAb clone 3B12
B12: 3A9 (antibody, V domains shown)
VH: B1 VH with N32Y, H33S, T103D, S105T, S106K, Y109F
VL: B1 VL
notes: also called optimized anti-PcrV mAb clone 3A9
B13: 8C1 (antibody, V domains shown)
VH: B1 VH with S104N, S106A, Y109F
VL: B1 VL with S97T
notes: also called optimized anti-PcrV mAb clone 8C1
B14: 7B1 (antibody, V domains shown)
VH: B1 VH with H33Y, G50V, S104L, Y109F
VL: B1 VL with S97T
notes: also called 7B1-IgG1; 7B1 mAb
B15: 6D10 (antibody, V domains shown)
VH: B1 VH with N32Y, H33P, S104D
VL: B1 VL
notes: also called optimized anti-PcrV mAb clone 6D10

Target: T1, recombinant Pseudomonas aeruginosa PcrV, full-length (PAO), His-tagged (Pseudomonas aeruginosa)
Assay: ELISA, PcrV coated on the plate, goat anti-human Fc-AP detection

Binder	EC50 [µg/mL]
B1	0.134
B2	0.132
B3	0.162
B4	0.0952
B5	0.104
B6	0.109
B7	0.0967
B8	0.149
B9	0.113
B10	0.0936
B11	0.118
B12	0.116
B13	0.111
B14	0.125

Target: T2, native PcrV on live Pseudomonas aeruginosa (strains O6-57/66, O11-PA103, O1-52/66, O16-177/81) (Pseudomonas aeruginosa)
Assay: cell-based or functional assay

Binder	A549 cytotoxicity assay IC50 (P. aeruginosa strain PA103(O11)) [µg/mL]
B1	1.36
B2	2.67
B3	3.01
B4	0.91
B5	2
B6	2.39
B7	2.32
B8	1.78
B9	2.8
B10	2.75
B11	2.68
B12	1.21
B15	2.63
B13	1.94
B14	1.06

Target: T2, native PcrV on live Pseudomonas …
Assay: cell-based or functional assay
Remark: another data set of the same source

Binder	A549 cell lysis Average IC50 over the strains [µg/mL]	A549 cell lysis IC50, strain O1-52/66 [µg/mL]	A549 cell lysis IC50, strain O6-57/66 [µg/mL]	A549 cell lysis IC50, strain O11-PA103 [µg/mL]	A549 cell lysis IC50, strain O16-177/81 [µg/mL]
B1	1.18	2	0.496	1.12	1.09
B2	1.38	2.34	0.891	1.21	1.08
B13	1.05	–	0.721	1.54	0.881
B14	2.13	4.56	0.503	2.61	0.861

Target: T1, recombinant Pseudomonas aeruginosa …
Assay: BLI

Binder	Kd [nM]
B1	0.101
B2	0.414
B3	0.194
B4	0.126
B5	0.204
B6	0.455
B7	0.0875
B8	0.779
B9	0.606
B10	0.381
B11	0.167
B12	0.533
B13	0.33
B14	< 0.001

Target: T2, native PcrV on live Pseudomonas …
Assay: cell-based or functional assay
Remark: another data set of the same source

Binder	RBC lysis assay IC50 (P. aeruginosa strain 57/66(O6)) [µg/mL]
B1	0.1
B2	0.23
B3	0.12
B5	0.04
B6	0.12
B7	0.05
B8	0.16
B9	0.16
B10	0.18
B11	0.16
B12	0.23
B15	0.16
B13	0.12
B14	0.1

Target: T1, recombinant Pseudomonas aeruginosa …
Assay: SPR (BIACORE)

Binder	Kd [nM]
B1	0.0457
B15	0.052
B13	0.0316
B14	0.0847

Target: T2, native PcrV on live Pseudomonas …
Assay: cell-based or functional assay
Remark: another data set of the same source

Binder	RBC lysis Average IC50 over the three strains [µg/mL]	RBC lysis IC50, strain O1-52/66 [µg/mL]	RBC lysis IC50, strain O6-57/66 [µg/mL]	RBC lysis IC50, strain O16-177/81 [µg/mL]
B1	0.195	0.367	0.0767	0.141
B2	0.355	0.472	0.13	0.464
B13	0.266	0.424	0.121	0.252
B14	0.214	0.308	0.138	0.197
